Test results taken from PMC10695398 (PLOS Pathogens, 2023).

Target: T1, His6-tagged STAT3, bacterially derived (UniProt P40763 1-770)
T1 construct: also called His6-STAT3; His6-St3; source: E. coli BL21(DE3), purified (Ni-NTA, eluted with imidazole)
Assay: pull-down
Conditions: both partners purified

T1 sequence (P40763 whole entry): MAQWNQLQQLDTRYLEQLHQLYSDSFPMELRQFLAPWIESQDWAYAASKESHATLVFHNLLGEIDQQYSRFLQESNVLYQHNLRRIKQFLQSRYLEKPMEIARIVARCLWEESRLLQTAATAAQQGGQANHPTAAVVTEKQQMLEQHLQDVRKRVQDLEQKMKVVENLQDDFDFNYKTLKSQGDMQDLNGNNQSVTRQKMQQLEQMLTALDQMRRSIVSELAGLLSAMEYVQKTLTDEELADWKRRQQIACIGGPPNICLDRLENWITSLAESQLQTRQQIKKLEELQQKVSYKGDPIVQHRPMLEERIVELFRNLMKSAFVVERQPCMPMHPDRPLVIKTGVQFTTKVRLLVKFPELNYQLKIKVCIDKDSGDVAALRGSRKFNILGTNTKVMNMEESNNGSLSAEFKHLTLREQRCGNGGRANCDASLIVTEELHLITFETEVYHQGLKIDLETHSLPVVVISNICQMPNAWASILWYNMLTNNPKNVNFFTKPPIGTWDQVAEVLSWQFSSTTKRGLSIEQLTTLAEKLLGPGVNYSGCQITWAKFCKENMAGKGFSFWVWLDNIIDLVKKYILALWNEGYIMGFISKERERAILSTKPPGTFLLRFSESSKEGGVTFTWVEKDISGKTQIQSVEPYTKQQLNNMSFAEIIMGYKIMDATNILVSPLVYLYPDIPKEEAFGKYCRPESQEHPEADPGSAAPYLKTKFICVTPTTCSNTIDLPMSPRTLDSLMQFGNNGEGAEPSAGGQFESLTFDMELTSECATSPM

B1: GST-tagged vIRF-1, bacterially derived (natural protein)
chain: MDPGQRPNPFGAPGAIPKKPCLSQGSPGTSGSGAPCDEPSRSESPGEGPSGTGGSAAAGDITRQAVVAAITEWSRTRQLRISTGASEGKASIKDWIVCQVNSGKFPGVEWEDEERTRFRIPVTPLADPCFEWRRDGELGVVYIRERGNMPVDASFKGTRGRRRMLAALRRTRGLQEIGKGISQDGHHFLVFRVRKPEEEQCVECGVVAGAVHDFNNMARLLQEGFFSPGQCLPGEIVTPVPSCTTAEGQEAVIDWGRLFIRMYYNGEQVHELLTTSQSGCRISSALRRDPAVHYCAVGSPGQVWLPNVPNLACEIAKRELCDTLDACAKGILLTSSCNGIFCVCYHNGPVHFIGNTVPPDSGPLLLPQGKPTRIFNPNTFLVGLANSPLPAPSHVTCPLVKLWLGKPVAVGKLEPHAPSPRDFAARCSNFSDACVVLEIMPKPLWDAMQ
notes: also called GST-fused vIRF-1; vIRF-1-GST
  binding result: binds
